Where “and” joins values, the source holds several entries; their conditions need not be identical. Identical values can stand only once.

The text below walks through data of US20220119534A1 (DRAGONFLY THERAPEUTICS, published 2022).

Test [1] concerns the target T1, Human CLEC12A-His (recombinant, K244 WT) (human, UniProt Q5QGZ9 65-265).
T1 construct: Made in house (Dragonfly Tx); also called hCLEC12A; hCLEC12A-His; not shown: His tag
T1 sequence: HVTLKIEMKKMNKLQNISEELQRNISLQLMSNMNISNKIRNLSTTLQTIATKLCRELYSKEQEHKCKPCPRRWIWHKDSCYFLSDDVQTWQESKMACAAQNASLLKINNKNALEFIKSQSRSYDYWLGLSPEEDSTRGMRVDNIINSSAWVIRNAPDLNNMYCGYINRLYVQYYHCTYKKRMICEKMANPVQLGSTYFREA
Description: SPR, two-state fit (ka1); after 4 wks 40C in CST pH 7.0. On the technique in general: Surface plasmon resonance follows binding to a sensor surface in real time, without labels.

The target in test [2] is T2, mFc-hNKG2D (recombinant mFc-tagged human NKG2D dimer) (human, UniProt P26718 73-216).
T2 construct: extracellular domain; Made in house; not shown: mouse Fc tag
T2 sequence (looked up): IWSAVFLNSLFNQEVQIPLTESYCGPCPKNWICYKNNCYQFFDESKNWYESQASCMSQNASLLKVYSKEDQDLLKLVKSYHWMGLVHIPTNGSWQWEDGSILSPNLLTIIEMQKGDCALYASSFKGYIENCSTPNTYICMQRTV
Kind of test: SPR; control sample.

In test [3] the target is T3, Human CD16a V158 (FcγRIIIa V158) (human, UniProt P08637 17-208, biotinylated).
T3 construct: Bought recombinant receptor; also called hCD16aV; hFcγRIIIa V158
T3 sequence (P08637 17-208 F176V limits assumed): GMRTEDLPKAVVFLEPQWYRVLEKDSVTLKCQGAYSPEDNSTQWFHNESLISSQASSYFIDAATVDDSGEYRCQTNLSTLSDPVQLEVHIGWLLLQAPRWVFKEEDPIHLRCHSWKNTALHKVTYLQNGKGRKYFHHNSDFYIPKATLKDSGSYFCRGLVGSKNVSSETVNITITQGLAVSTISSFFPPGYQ
Kind of test: SPR; control sample.

In test [4] the target is T4, Human CD32a H131 (FcγRIIa H131) (human, UniProt P12318 36-218, limits assumed, biotinylated).
T4 construct: Bought recombinant receptor; also called hFcγRIIa H131; FcgRIIa H131
T4 sequence (looked up): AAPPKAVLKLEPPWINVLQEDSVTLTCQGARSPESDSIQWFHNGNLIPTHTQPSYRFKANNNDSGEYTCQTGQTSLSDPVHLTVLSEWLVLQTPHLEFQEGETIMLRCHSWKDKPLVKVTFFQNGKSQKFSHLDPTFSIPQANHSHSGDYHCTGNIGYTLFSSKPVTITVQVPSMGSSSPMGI
Description: SPR 25C, biotinylated receptor captured on SA chip.

Test [5] concerns the target T5, Human CD32a R131 (FcγRIIa R131) (human, UniProt P12318 36-218, limits assumed, biotinylated).
T5 construct: Bought recombinant receptor; also called hFcγRIIa R131; FcgRIIa R131
T5 sequence (looked up): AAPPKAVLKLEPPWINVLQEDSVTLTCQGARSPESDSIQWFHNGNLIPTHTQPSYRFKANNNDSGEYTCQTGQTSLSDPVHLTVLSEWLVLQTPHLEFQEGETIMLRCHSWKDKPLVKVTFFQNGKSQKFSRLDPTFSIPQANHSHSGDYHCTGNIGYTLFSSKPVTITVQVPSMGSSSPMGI
Description: SPR 25C, biotinylated receptor captured on SA chip.

For test [6], the target named is T6, human CLEC12A expressed on cells (human, UniProt Q5QGZ9 1-265).
T6 construct: Transduced isogenic cells or endogenous expression on AML cells; also called RMA-hCLEC12A; Ba/F3-hCLEC12A
T6 sequence: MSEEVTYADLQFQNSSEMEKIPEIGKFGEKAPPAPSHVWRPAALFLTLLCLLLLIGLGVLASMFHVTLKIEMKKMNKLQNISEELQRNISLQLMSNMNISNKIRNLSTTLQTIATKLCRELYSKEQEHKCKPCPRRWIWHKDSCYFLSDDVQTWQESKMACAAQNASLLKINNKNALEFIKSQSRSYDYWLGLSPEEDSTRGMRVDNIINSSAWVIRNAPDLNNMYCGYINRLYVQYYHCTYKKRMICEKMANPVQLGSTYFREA
Description: flow cytometry, hCLEC12A+ Ba/F3. A general note: A flow cytometer gives signals particle by particle.

The target of another test is T7, recombinant human CD64 (human, UniProt P12314 16-288, biotinylated).
T7 construct: also called hFcγRI; hCD64
T7 sequence (P12314 16-288 limits assumed): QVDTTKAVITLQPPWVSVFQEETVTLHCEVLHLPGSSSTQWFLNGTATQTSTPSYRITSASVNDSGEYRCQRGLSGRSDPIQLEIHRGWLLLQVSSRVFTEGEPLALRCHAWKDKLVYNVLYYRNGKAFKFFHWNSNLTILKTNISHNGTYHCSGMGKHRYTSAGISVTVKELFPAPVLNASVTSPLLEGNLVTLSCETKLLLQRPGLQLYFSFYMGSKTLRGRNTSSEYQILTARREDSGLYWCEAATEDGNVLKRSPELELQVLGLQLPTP
Description: SPR 25C, kinetic fit, average.

B1: AB0089 TriNKET (bispecific antibody, human IgG1, kappa)
chain: QLQLQESGPGLVKPSETLSLTCTVSGFSLTNYGLHWIRQPPGKCLEWIGVIWVGGATDYNPSLKSRVTISVDTSKNQFSLKLSSVQAADTAVYYCAKGDYGDTLDYWGQGTLVTVSSGGGGSGGGGSGGGGSGGGGSDIQMTQSPSSLSASVGDRVTITCHASQNINFWLSWYQQKPGKAPKLLIYEASNLHTGVPSRFSGSGSGTDFTLTISSLQPEDFATYYCQQSHSYPLTFGCGTKLEIKGSDKTHTCPPCPAPELLGGPSVFLFPPKPKDTLMISRTPEVTCVVVDVSHEDPEVKFNWYVDGVEVHNAKTKPREEQYNSTYRVVSVLTVLHQDWLNGKEYKCKVSNKALPAPIEKTISKAKGQPREPRVYTLPPCRDELTKNQVSLTCLVKGFYPSDIAVEWESNGQPENNYKTTPPVLVSDGSFTLYSKLTVDKSRWQQGNVFSCSVMHEALHNHYTQKSLSLSPG
heavy: EVQLVESGGGLVKPGGSLRLSCAASGFTFSSYSMNWVRQAPGKGLEWVSSISSSSSYIYYADSVKGRFTISRDNAKNSLYLQMNSLRAEDTAVYYCARGAPIGAAAGWFDPWGQGTLVTVSSASTKGPSVFPLAPSSKSTSGGTAALGCLVKDYFPEPVTVSWNSGALTSGVHTFPAVLQSSGLYSLSSVVTVPSSSLGTQTYICNVNHKPSNTKVDKKVEPKSCDKTHTCPPCPAPELLGGPSVFLFPPKPKDTLMISRTPEVTCVVVDVSHEDPEVKFNWYVDGVEVHNAKTKPREEQYNSTYRVVSVLTVLHQDWLNGKEYKCKVSNKALPAPIEKTISKAKGQPREPQVCTLPPSRDELTENQVSLTCLVKGFYPSDIAVEWESNGQPENNYKTTPPVLDSDGSFFLYSWLTVDKSRWQQGNVFSCSVMHEALHNHYTQKSLSLSPG
light: DIQMTQSPSSVSASVGDRVTITCRASQGISSWLAWYQQKPGKAPKLLIYAASSLQSGVPSRFSGSGSGTDFTLTISSLQPEDFATYYCQQGVSFPRTFGGGTKVEIKRTVAAPSVFIFPPSDEQLKSGTASVVCLLNNFYPREAKVQWKVDNALQSGNSQESVTEQDSKDSTYSLSSTLTLSKADYEKHKVYACEVTHQGLSSPVTKSFNRGEC
notes: F3' format heterodimer of three chains; human IgG1 Fc with EW-RVT and Y349C/S354C mutations; also called AB0089 Lot AB0089-002; CLEC12A TriNKET AB0089
The term kon denotes the rate constant with which the complex forms. Usually Kd stands for the equilibrium constant for the complex coming apart. The term koff denotes the rate constant with which the complex falls apart. For the molecule B1, the results for the kon in test [1], in test [2] and in test [3] were 6.31e+06 M⁻¹ s⁻¹, 175000 M⁻¹ s⁻¹ and 85300 M⁻¹ s⁻¹, respectively. Further, the equilibrium dissociation constant (Kd) in test [2] was 772 nM; in test [3], 323 nM; in test [4], 954 nM and 823 nM and 930 nM and 895 nM; in test [5], 1340 nM and 1020 nM and 1600 nM and 1060 nM. Further, the koff in test [2] came to 0.135 s⁻¹; in test [3], 0.0276 s⁻¹.

B2: F3'-1602 TriNKET (other)
chain: QLQLQESGPGLVKPSETLSLTCTVSGFSLTNYGLHWIRQPPGKCLEWIGVIWSGGKTDYNPSLKSRVTISKDTSKNQFSLKLSSVQAADTAVYYCAKYDYDDSLDYWGQGTLVTVSSGGGGSGGGGSGGGGSGGGGSDIQMTQSPSSLSASVGDRVTITCHASQNINFWLSWYQQKPGKAPKLLIYEASNLHTGVPSRFSGSGSGTRFTLTISSLQPEDIATYYCQQSHSYPLTFGCGTKLEIKGSDKTHTCPPCPAPELLGGPSVFLFPPKPKDTLMISRTPEVTCVVVDVSHEDPEVKFNWYVDGVEVHNAKTKPREEQYNSTYRVVSVLTVLHQDWLNGKEYKCKVSNKALPAPIEKTISKAKGQPREPRVYTLPPCRDELTKNQVSLTCLVKGFYPSDIAVEWESNGQPENNYKTTPPVLVSDGSFTLYSKLTVDKSRWQQGNVFSCSVMHEALHNHYTQKSLSLSPG
heavy: EVQLVESGGGLVKPGGSLRLSCAASGFTFSSYSMNWVRQAPGKGLEWVSSISSSSSYIYYADSVKGRFTISRDNAKNSLYLQMNSLRAEDTAVYYCARGAPIGAAAGWFDPWGQGTLVTVSSASTKGPSVFPLAPSSKSTSGGTAALGCLVKDYFPEPVTVSWNSGALTSGVHTFPAVLQSSGLYSLSSVVTVPSSSLGTQTYICNVNHKPSNTKVDKKVEPKSCDKTHTCPPCPAPELLGGPSVFLFPPKPKDTLMISRTPEVTCVVVDVSHEDPEVKFNWYVDGVEVHNAKTKPREEQYNSTYRVVSVLTVLHQDWLNGKEYKCKVSNKALPAPIEKTISKAKGQPREPQVCTLPPSRDELTENQVSLTCLVKGFYPSDIAVEWESNGQPENNYKTTPPVLDSDGSFFLYSWLTVDKSRWQQGNVFSCSVMHEALHNHYTQKSLSLSPG
light: DIQMTQSPSSVSASVGDRVTITCRASQGISSWLAWYQQKPGKAPKLLIYAASSLQSGVPSRFSGSGSGTDFTLTISSLQPEDFATYYCQQGVSFPRTFGGGTKVEIKRTVAAPSVFIFPPSDEQLKSGTASVVCLLNNFYPREAKVQWKVDNALQSGNSQESVTEQDSKDSTYSLSSTLTLSKADYEKHKVYACEVTHQGLSSPVTKSFNRGEC
notes: CLEC12A scFv-Fc, NKG2D A49MI Fab-Fc, human IgG1 Fc; also called AB0237
What is called EC50 is the midpoint of the concentration-response curve. Read a low EC50 as higher potency in that assay. Consider B2, for which the half-maximal effective concentration (EC50) in test [6] stood at 3.2 nM. For the same molecule, in the test with recombinant human CD64, the Kd is 5.2 nM, the off-rate (koff) stood at 0.00027 s⁻¹ and the association rate constant (kon) came out at 52000 M⁻¹ s⁻¹.
